Here are results for two molecules from publication PMC6957267 (Molecular cancer therapeutics, 2012).

For the assay, the target named is Mature human IGF-II (insulin-like growth factor II) (human). Description: ELISA. (In general: In an ELISA, binding on a coated surface is turned into a signal by an enzyme label.)

B1: Fab m610.27 (Fab, V domains shown)
VH: QVQLVQSGAEVKKPGASVKVSCKASGYTFTSYYMHWVRQAPGQGLEWMGIINPSGGSTSYAQKFQGRVTMTRDTSTSTVYMELSRLRSDDTAVYYCARDVQWLAYGMDVWGQGTTVTVSS
VL: DIQMTQSPSSLSASVGDRVTITCRASQSISSYLNWYQQKPGRAPDLLINAASSLQSGVPSRFSGSGSGTDFTLTISSLQPEDFATYFCQQSYSLPFTFGGGTKVEIK
With B1, the EC50 (as a rule, the concentration giving half of the maximal effect) was determined as 5 nM.

B2: m610 (human mAb to IGF-II), Fab (Fab, V domains shown)
VH: QVQLVQSGAEVKKPGASVKVSCKASGYTFTSYYMHWVRQAPGQGLEWMGIINPSGGSTSYAQKFQGRVTMTRDTSTSTVYMELSRLRSDDTAVYYCARDVQWLAYGMDVWGQGTTVTVSS
VL: not shown
B2 gave an EC50 of 20 nM.
